From patent US20240190962A1 (IMMUNOWAKE, published 2024)

What was measured:
[1] = biological target: T1, human IL-2 receptor (IL-2Rα, IL-2Rβ, IL-2Rγ) (human, UniProt P01589 22-272; P14784 27-551; P31785 23-369); assay: cell-based or functional assay
T1 sequence (looked up) 1: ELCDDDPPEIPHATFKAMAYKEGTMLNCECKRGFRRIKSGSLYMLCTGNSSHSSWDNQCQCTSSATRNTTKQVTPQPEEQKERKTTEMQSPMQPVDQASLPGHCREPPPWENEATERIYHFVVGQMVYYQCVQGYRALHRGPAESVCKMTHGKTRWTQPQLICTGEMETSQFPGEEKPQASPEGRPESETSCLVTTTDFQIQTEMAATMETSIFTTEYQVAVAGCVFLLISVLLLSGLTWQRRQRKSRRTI
T1 sequence (looked up) 2: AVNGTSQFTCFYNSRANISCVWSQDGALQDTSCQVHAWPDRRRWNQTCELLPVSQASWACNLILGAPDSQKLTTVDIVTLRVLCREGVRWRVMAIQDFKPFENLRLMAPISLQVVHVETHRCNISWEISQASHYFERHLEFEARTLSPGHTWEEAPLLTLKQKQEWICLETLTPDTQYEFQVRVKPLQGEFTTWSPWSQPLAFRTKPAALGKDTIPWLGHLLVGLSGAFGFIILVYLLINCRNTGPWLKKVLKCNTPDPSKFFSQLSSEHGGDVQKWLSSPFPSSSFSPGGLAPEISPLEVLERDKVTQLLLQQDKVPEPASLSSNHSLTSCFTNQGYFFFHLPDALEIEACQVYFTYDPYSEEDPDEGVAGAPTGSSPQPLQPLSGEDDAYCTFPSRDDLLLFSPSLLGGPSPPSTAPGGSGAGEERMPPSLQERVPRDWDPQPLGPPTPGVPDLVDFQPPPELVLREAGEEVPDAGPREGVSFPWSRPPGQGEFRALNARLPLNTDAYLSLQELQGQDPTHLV
T1 sequence (looked up) 3: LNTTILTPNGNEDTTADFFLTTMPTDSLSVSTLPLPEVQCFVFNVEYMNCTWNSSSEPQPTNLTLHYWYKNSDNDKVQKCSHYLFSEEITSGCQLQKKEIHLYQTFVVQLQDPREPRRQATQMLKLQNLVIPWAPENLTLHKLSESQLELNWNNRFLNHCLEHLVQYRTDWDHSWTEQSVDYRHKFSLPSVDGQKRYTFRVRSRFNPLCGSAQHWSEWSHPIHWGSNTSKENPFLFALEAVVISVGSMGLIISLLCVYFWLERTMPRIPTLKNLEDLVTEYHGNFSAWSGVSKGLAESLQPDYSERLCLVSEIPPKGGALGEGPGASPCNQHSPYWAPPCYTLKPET

[2] = biological target: T2, human PD-1 on HEK-PD-1-IL-2 cells (human, UniProt Q15116 25-288); assay: FACS on HEK-PD-1-IL-2 cells
T2 construct: whole, on cells
T2 sequence (Q15116 25-288): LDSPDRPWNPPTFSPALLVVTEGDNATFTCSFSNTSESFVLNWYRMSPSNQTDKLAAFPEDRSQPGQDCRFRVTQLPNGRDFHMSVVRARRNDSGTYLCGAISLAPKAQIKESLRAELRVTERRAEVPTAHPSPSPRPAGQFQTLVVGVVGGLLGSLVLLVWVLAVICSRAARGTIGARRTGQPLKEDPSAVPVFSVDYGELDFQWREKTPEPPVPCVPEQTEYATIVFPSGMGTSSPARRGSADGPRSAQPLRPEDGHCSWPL

Percent IL-2 signal transduction (HEK-IL-2 reporter assay) [1]: 2.4%
Percent IL-2 signal transduction (HEK-PD-1-IL-2 reporter assay) [1]: 43.5%
binding result [2]: binds
B1: ligand-IL-2 mutant-PD-L2-Fc (Fc fusion)
chain 1: LFTVTVPKELYIIEHGSNVTLECNFDTGSHVNLGAITASLQKVENDTSPHRERATLLEEQLPLGKASFHIPQVQVRDEGQYQCIIIYGVAWDYKYLTLKVKASYRKINTHILKVPETDEVELTCQATGYPLAEVSWPNVSVPANTSHSRTPEGLYQVTSVLRLKPPPGRNFSCVFWNTHVRELTLASIDLQSQMEPRTHPTGGGGSAPTSSSTKKTQLQLEHLLLDLQMILNGINNYKNPKLTDMLTFEFYMPKKATELKHLQCLERELKPLEEVLNLAQSKNFHLRPRDLISNINVIVLELKGSETTFMCEYADETATIVEFLNRWITFCQSIISTLTDKTHTCPPCPAPEDEGGPSVFLFPPKPKDTLMISRTPEVTCVVVDVSHEDPEVKFNWYVDGVEVHNAKTKPREEQYNSTYRVVSVLTVLHQDWLNGKEYKCKVSNKALPAPIEKTISKAKGQPREPQVYVYPPSREEMTKNQVSLTCLVKGFYPSDIAVEWESNGQPENNYKTTPPVLDEDGSFALVSKLTVDKSRWQQGNVFSCSVMHEALHNHYTQKSLSLSPGK
chain 2: LFTVTVPKELYIIEHGSNVTLECNFDTGSHVNLGAITASLQKVENDTSPHRERATLLEEQLPLGKASFHIPQVQVRDEGQYQCIIIYGVAWDYKYLTLKVKASYRKINTHILKVPETDEVELTCQATGYPLAEVSWPNVSVPANTSHSRTPEGLYQVTSVLRLKPPPGRNFSCVFWNTHVRELTLASIDLQSQMEPRTHPTGGGGSDKTHTCPPCPAPEKKGGPSVFLFPPKPKDTLMISRTPEVTCVVVDVSHEDPEVKFNWYVDGVEVHNAKTKPREEQYNSTYRVVSVLTVLHQDWLNGKEYKCKVSNKALPAPIEKTISKAKGQPREPQVYVLPPSREEMTKNQVSLLCLVKGFYPSDIAVEWESNGQPENRYMTWPPVLDSDGSFFLYSKLTVDKSRWQQGNVFSCSVMHEALHNHYTQKSLSLSPGK
notes: also called IL-2(R38D/K43E/E61R)/PD-L2-Fc immunocytokine; construct #11
